Laboratory results from article PMC9482650, “Quantitative fragmentomics allow affinity mapping of interactomes” (Nature Communications, 2022).

Experiments:
Assay in all cases: holdup assay
Set-up in all cases: key: below the threshold = too weak to quantify, mostly under pKd 3.1 to 4
SNTA1, Q13424 = molecular target: T1, SNTA1, Q13424
T1 sequence (Q13424 82-180, limits assumed, looked up): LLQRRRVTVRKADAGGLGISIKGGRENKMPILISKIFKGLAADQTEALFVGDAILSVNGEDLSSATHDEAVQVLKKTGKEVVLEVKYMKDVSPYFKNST

DLG1_2, Q12959 = molecular target: DLG1_2, Q12959
PTPN3, P26045 = molecular target: PTPN3, P26045
LNX2_3, Q8N448 = molecular target: T2, LNX2_3, Q8N448
T2 sequence (Q8N448 463-564, limits assumed, looked up): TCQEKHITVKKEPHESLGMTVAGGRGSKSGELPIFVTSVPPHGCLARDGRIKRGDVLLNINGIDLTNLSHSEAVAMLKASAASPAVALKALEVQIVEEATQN

NHERF3_1, Q5T2W1 = molecular target: T3, NHERF3_1, Q5T2W1
T3 sequence (Q5T2W1 4-100, limits assumed, looked up): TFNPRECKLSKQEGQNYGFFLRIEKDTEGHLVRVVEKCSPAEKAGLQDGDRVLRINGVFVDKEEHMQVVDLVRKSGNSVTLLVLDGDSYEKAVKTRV

MAGI2_5, Q86UL8 = molecular target: MAGI2_5, Q86UL8
ARHGEF11, O15085 = molecular target: T4, ARHGEF11, O15085
T4 sequence (O15085 42-136, limits assumed, looked up): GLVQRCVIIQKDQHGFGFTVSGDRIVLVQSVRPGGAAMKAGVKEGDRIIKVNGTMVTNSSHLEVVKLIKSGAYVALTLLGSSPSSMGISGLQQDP

GRIP1_5, Q9Y3R0 = molecular target: T5, GRIP1_5, Q9Y3R0
T5 sequence (Q9Y3R0 568-668, limits assumed, looked up): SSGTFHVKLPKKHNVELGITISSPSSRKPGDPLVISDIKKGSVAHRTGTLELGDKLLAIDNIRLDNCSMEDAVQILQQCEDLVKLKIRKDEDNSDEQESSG

SCRIB_3, Q14160 = molecular target: SCRIB_3, Q14160
MAGI3_2, Q5TCQ9 = molecular target: MAGI3_2, Q5TCQ9
Inadl_1, Q8NI35 = molecular target: Inadl_1, Q8NI35
Inadl_4, Q8NI35 = molecular target: Inadl_4, Q8NI35
HTRA2, O43464 = molecular target: HTRA2, O43464
DLG2_3, Q15700 = molecular target: DLG2_3, Q15700
GRIP2_3, Q9C0E4 = molecular target: GRIP2_3, Q9C0E4
MPDZ_10, O75970 = molecular target: T6, MPDZ_10, O75970
T6 sequence (O75970 1624-1722, limits assumed, looked up): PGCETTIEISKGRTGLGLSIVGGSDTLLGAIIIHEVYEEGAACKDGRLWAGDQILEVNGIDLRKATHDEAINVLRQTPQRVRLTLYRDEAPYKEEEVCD

MAGI2_6, Q86UL8 = molecular target: MAGI2_6, Q86UL8
DFNB31_3, Q9P202 = molecular target: T7, DFNB31_3, Q9P202
T7 sequence (Q9P202 811-907, limits assumed, looked up): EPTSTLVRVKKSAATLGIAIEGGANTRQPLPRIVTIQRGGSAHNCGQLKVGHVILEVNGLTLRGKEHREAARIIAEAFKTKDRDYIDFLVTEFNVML

DLG1_3, Q12959 = molecular target: DLG1_3, Q12959
NHERF4_2, Q86UT5 = molecular target: NHERF4_2, Q86UT5
FRMPD2_2, Q68DX3 = molecular target: FRMPD2_2, Q68DX3
MAGI2_2, Q86UL8 = molecular target: MAGI2_2, Q86UL8
GORASP1, Q9BQQ3 = molecular target: GORASP1, Q9BQQ3
GRIP1_3, Q9Y3R0 = molecular target: T8, GRIP1_3, Q9Y3R0
T8 sequence (Q9Y3R0 247-346, limits assumed, looked up): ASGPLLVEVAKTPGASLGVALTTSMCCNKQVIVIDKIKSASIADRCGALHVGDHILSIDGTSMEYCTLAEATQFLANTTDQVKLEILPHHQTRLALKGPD

RADIL, Q96JH8 = molecular target: T9, RADIL, Q96JH8
T9 sequence (Q96JH8 971-1071, limits assumed, looked up): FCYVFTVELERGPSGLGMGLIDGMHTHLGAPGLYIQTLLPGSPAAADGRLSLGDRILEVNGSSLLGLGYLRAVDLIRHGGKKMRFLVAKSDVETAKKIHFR

CARD11, Q9BXL7 = molecular target: T10, CARD11, Q9BXL7
T10 sequence (Q9BXL7 662-765, limits assumed, looked up): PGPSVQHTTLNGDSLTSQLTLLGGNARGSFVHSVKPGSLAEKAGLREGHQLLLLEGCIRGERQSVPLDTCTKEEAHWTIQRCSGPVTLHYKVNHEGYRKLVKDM

GRIP2_5, Q9C0E4 = molecular target: GRIP2_5, Q9C0E4
[1] = plain residues with an end cap or a label only (N-terminal biotin on a linker: ado-ado)
[2] = modified: phospho on T at position -1 from the C-terminal residue
[3] = modified: phospho on T at position -2 from the C-terminal residue

Chain of GRIP2_5, Q9C0E4 (Q9C0E4 544-642): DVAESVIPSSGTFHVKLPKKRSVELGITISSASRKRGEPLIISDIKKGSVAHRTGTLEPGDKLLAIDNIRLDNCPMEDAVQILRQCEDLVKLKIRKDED
Chain of MAGI3_2, Q5TCQ9 (Q5TCQ9 398-503): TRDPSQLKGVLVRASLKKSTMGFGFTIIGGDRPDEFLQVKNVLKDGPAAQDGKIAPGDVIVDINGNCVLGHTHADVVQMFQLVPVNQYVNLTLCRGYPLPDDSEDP
Chain of MAGI2_6, Q86UL8 (Q86UL8 1141-1229): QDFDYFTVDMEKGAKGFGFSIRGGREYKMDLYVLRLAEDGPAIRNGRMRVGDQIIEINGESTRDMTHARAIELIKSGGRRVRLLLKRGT
Chain of HTRA2, O43464 (O43464 355-458): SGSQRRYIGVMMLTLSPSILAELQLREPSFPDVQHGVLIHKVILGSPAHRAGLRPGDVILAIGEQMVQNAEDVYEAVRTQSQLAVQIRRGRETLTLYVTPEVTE
Chain of Inadl_4, Q8NI35 (Q8NI35 547-651): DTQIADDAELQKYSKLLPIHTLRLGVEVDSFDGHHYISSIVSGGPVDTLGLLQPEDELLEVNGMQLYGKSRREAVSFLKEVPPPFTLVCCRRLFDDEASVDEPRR
Chain of NHERF4_2, Q86UT5 (Q86UT5 220-308): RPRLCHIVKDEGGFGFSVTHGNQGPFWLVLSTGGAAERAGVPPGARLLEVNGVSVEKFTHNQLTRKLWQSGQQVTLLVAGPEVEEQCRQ
Chain of GRIP2_3, Q9C0E4 (Q9C0E4 238-339): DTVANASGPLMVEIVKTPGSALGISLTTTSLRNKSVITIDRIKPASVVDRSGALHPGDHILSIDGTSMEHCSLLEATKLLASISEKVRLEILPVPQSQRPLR
Chain of PTPN3, P26045 (P26045 505-587): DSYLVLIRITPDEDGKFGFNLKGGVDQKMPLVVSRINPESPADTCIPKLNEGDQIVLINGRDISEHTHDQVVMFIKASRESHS
Chain of DLG1_2, Q12959 (Q12959 314-412): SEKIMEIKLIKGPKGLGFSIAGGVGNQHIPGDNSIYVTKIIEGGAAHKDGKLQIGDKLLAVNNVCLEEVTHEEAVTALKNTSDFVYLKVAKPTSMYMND
Chain of GORASP1, Q9BQQ3 (Q9BQQ3 1-208): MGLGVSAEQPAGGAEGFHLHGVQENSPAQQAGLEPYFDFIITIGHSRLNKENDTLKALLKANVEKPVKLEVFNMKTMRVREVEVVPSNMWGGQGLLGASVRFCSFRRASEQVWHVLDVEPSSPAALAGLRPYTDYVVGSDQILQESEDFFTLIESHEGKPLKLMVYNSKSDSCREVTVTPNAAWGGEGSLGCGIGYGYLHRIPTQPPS
Chain of MAGI2_2, Q86UL8 (Q86UL8 410-522): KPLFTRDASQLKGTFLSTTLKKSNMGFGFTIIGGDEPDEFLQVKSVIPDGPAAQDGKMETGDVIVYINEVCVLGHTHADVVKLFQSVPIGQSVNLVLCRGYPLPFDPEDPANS
Chain of Inadl_1, Q8NI35 (Q8NI35 113-229): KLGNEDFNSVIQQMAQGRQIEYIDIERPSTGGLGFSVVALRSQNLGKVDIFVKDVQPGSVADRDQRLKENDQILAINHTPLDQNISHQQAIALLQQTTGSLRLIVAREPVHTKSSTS
Chain of FRMPD2_2, Q68DX3 (Q68DX3 944-1038): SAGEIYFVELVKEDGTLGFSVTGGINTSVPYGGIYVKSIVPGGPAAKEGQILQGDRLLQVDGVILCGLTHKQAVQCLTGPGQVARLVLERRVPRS
Chain of DLG1_3, Q12959 (Q12959 457-571): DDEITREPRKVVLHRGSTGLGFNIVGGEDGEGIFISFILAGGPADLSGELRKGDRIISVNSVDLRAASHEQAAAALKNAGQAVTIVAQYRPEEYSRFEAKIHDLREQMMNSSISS
Chain of SCRIB_3, Q14160 (Q14160 999-1103): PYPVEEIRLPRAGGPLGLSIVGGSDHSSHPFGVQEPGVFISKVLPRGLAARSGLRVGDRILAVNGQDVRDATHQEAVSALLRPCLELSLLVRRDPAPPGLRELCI
Chain of MAGI2_5, Q86UL8 (Q86UL8 915-1017): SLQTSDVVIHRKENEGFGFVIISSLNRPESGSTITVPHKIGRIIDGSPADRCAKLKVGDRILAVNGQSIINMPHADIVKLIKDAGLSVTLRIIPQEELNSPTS

## DQPLEKSTKL [AKAP10, O43572]
SNTA1, Q13424; [1]
  pKd: 3.71
DLG1_2, Q12959; [1]
  pKd: below the threshold
PTPN3, P26045; [1]
  pKd: 4.62
LNX2_3, Q8N448; [1]
  pKd: below the threshold
NHERF3_1, Q5T2W1; [1]
  pKd: 6.02
MAGI2_5, Q86UL8; [1]
  pKd: 4.02
ARHGEF11, O15085; [1]
  pKd: 4.2
GRIP1_5, Q9Y3R0; [1]
  pKd: below the threshold
SCRIB_3, Q14160; [1]
  pKd: 4.14
MAGI3_2, Q5TCQ9; [1]
  pKd: below the threshold
Inadl_1, Q8NI35; [1]
  pKd: below the threshold
Inadl_4, Q8NI35; [1]
  pKd: below the threshold
HTRA2, O43464; [1]
  pKd: below the threshold
DLG2_3, Q15700; [1]
  pKd: 3.83
GRIP2_3, Q9C0E4; [1]
  pKd: below the threshold
MPDZ_10, O75970; [1]
  pKd: below the threshold
MAGI2_6, Q86UL8; [1]
  pKd: below the threshold
DFNB31_3, Q9P202; [1]
  pKd: 3.68
DLG1_3, Q12959; [1]
  pKd: below the threshold
NHERF4_2, Q86UT5; [1]
  pKd: below the threshold
FRMPD2_2, Q68DX3; [1]
  pKd: below the threshold
MAGI2_2, Q86UL8; [1]
  pKd: below the threshold
GORASP1, Q9BQQ3; [1]
  pKd: below the threshold
GRIP1_3, Q9Y3R0; [1]
  pKd: below the threshold
RADIL, Q96JH8; [1]
  pKd: below the threshold
CARD11, Q9BXL7; [1]
  pKd: below the threshold
GRIP2_5, Q9C0E4; [1]
  pKd: below the threshold

## RRVRKLPSTTL [RPS6KA1_-1P, Q15418]
SNTA1, Q13424; [2]
  pKd: 3.85
DLG1_2, Q12959; [2]
  pKd: 3.83
PTPN3, P26045; [2]
  pKd: 4.48
LNX2_3, Q8N448; [2]
  pKd: below the threshold
NHERF3_1, Q5T2W1; [2]
  pKd: 4.2
MAGI2_5, Q86UL8; [2]
  pKd: 3.56
ARHGEF11, O15085; [2]
  pKd: 4.29
GRIP1_5, Q9Y3R0; [2]
  pKd: below the threshold
SCRIB_3, Q14160; [2]
  pKd: 4.61
MAGI3_2, Q5TCQ9; [2]
  pKd: 3.94
Inadl_1, Q8NI35; [2]
  pKd: 3.35
Inadl_4, Q8NI35; [2]
  pKd: below the threshold
HTRA2, O43464; [2]
  pKd: 3.49
DLG2_3, Q15700; [2]
  pKd: 3.74
GRIP2_3, Q9C0E4; [2]
  pKd: below the threshold
MPDZ_10, O75970; [2]
  pKd: below the threshold
MAGI2_6, Q86UL8; [2]
  pKd: 3.83
DFNB31_3, Q9P202; [2]
  pKd: 3.78
DLG1_3, Q12959; [2]
  pKd: 3.7
NHERF4_2, Q86UT5; [2]
  pKd: below the threshold
FRMPD2_2, Q68DX3; [2]
  pKd: 3.47
MAGI2_2, Q86UL8; [2]
  pKd: 3.92
GORASP1, Q9BQQ3; [2]
  pKd: 3.6
GRIP1_3, Q9Y3R0; [2]
  pKd: 3.34
RADIL, Q96JH8; [2]
  pKd: 3.52
CARD11, Q9BXL7; [2]
  pKd: below the threshold
GRIP2_5, Q9C0E4; [2]
  pKd: below the threshold

## LEPAVRSSEL [SH2D3C, Q8N5H7]
SNTA1, Q13424; [1]
  pKd: 3.95
DLG1_2, Q12959; [1]
  pKd: 4.29
PTPN3, P26045; [1]
  pKd: 4.82
LNX2_3, Q8N448; [1]
  pKd: below the threshold
NHERF3_1, Q5T2W1; [1]
  pKd: 5.33
MAGI2_5, Q86UL8; [1]
  pKd: 4.28
ARHGEF11, O15085; [1]
  pKd: 4.18
GRIP1_5, Q9Y3R0; [1]
  pKd: below the threshold
SCRIB_3, Q14160; [1]
  pKd: 4.39
MAGI3_2, Q5TCQ9; [1]
  pKd: below the threshold
Inadl_1, Q8NI35; [1]
  pKd: below the threshold
Inadl_4, Q8NI35; [1]
  pKd: below the threshold
HTRA2, O43464; [1]
  pKd: below the threshold
DLG2_3, Q15700; [1]
  pKd: below the threshold
GRIP2_3, Q9C0E4; [1]
  pKd: below the threshold
MPDZ_10, O75970; [1]
  pKd: below the threshold
MAGI2_6, Q86UL8; [1]
  pKd: 3.96
DFNB31_3, Q9P202; [1]
  pKd: below the threshold
DLG1_3, Q12959; [1]
  pKd: below the threshold
NHERF4_2, Q86UT5; [1]
  pKd: below the threshold
FRMPD2_2, Q68DX3; [1]
  pKd: below the threshold
MAGI2_2, Q86UL8; [1]
  pKd: below the threshold
GORASP1, Q9BQQ3; [1]
  pKd: below the threshold
GRIP1_3, Q9Y3R0; [1]
  pKd: below the threshold
RADIL, Q96JH8; [1]
  pKd: below the threshold
CARD11, Q9BXL7; [1]
  pKd: below the threshold
GRIP2_5, Q9C0E4; [1]
  pKd: below the threshold

## GQSVDLVFPV [AKIP1, Q9NQ31]
SNTA1, Q13424; [1]
  pKd: below the threshold
DLG1_2, Q12959; [1]
  pKd: below the threshold
PTPN3, P26045; [1]
  pKd: below the threshold
LNX2_3, Q8N448; [1]
  pKd: below the threshold
NHERF3_1, Q5T2W1; [1]
  pKd: below the threshold
MAGI2_5, Q86UL8; [1]
  pKd: below the threshold
ARHGEF11, O15085; [1]
  pKd: 4.09
GRIP1_5, Q9Y3R0; [1]
  pKd: below the threshold
SCRIB_3, Q14160; [1]
  pKd: below the threshold
MAGI3_2, Q5TCQ9; [1]
  pKd: below the threshold
Inadl_1, Q8NI35; [1]
  pKd: 3.5
Inadl_4, Q8NI35; [1]
  pKd: below the threshold
HTRA2, O43464; [1]
  pKd: 3.54
DLG2_3, Q15700; [1]
  pKd: below the threshold
GRIP2_3, Q9C0E4; [1]
  pKd: below the threshold
MPDZ_10, O75970; [1]
  pKd: below the threshold
MAGI2_6, Q86UL8; [1]
  pKd: below the threshold
DFNB31_3, Q9P202; [1]
  pKd: below the threshold
DLG1_3, Q12959; [1]
  pKd: below the threshold
NHERF4_2, Q86UT5; [1]
  pKd: below the threshold
FRMPD2_2, Q68DX3; [1]
  pKd: below the threshold
MAGI2_2, Q86UL8; [1]
  pKd: below the threshold
GORASP1, Q9BQQ3; [1]
  pKd: 3.92
GRIP1_3, Q9Y3R0; [1]
  pKd: below the threshold
RADIL, Q96JH8; [1]
  pKd: 3.97
CARD11, Q9BXL7; [1]
  pKd: 3.63
GRIP2_5, Q9C0E4; [1]
  pKd: below the threshold

## RRVRKLPSTTL [RPS6KA1_-2P, Q15418]
SNTA1, Q13424; [3]
  pKd: below the threshold
DLG1_2, Q12959; [3]
  pKd: below the threshold
PTPN3, P26045; [3]
  pKd: below the threshold
LNX2_3, Q8N448; [3]
  pKd: below the threshold
NHERF3_1, Q5T2W1; [3]
  pKd: below the threshold
MAGI2_5, Q86UL8; [3]
  pKd: below the threshold
ARHGEF11, O15085; [3]
  pKd: below the threshold
GRIP1_5, Q9Y3R0; [3]
  pKd: below the threshold
SCRIB_3, Q14160; [3]
  pKd: below the threshold
MAGI3_2, Q5TCQ9; [3]
  pKd: below the threshold
Inadl_1, Q8NI35; [3]
  pKd: below the threshold
Inadl_4, Q8NI35; [3]
  pKd: below the threshold
HTRA2, O43464; [3]
  pKd: below the threshold
DLG2_3, Q15700; [3]
  pKd: below the threshold
GRIP2_3, Q9C0E4; [3]
  pKd: below the threshold
MPDZ_10, O75970; [3]
  pKd: below the threshold
MAGI2_6, Q86UL8; [3]
  pKd: below the threshold
DFNB31_3, Q9P202; [3]
  pKd: below the threshold
DLG1_3, Q12959; [3]
  pKd: below the threshold
NHERF4_2, Q86UT5; [3]
  pKd: below the threshold
FRMPD2_2, Q68DX3; [3]
  pKd: below the threshold
MAGI2_2, Q86UL8; [3]
  pKd: below the threshold
GORASP1, Q9BQQ3; [3]
  pKd: 3.75
GRIP1_3, Q9Y3R0; [3]
  pKd: below the threshold
RADIL, Q96JH8; [3]
  pKd: below the threshold
CARD11, Q9BXL7; [3]
  pKd: below the threshold
GRIP2_5, Q9C0E4; [3]
  pKd: below the threshold
